{"source": "patent US20190360013", "origin": "cited, not measured here", "tested_on": "mEcSSB (monomeric E. coli SSB) (Escherichia coli)", "details": "CITED; at ion concentrations optimal for TdT; footprint 65 nt", "data": [{"substance": "ssDNA (65-nt footprint)", "values": [{"measurement": "Kd", "result": "< 1", "unit": "pM"}]}]}
